Tests used:
[1] = tested on: MS2 coat protein; experiment: apparent KD of MS2 coat protein, switch ON state; designed switch direction (-1 OFF switch, 1 ON switch): -1; higher = weaker reporter binding; details: FMN input: 0 or 200 uM; Eterna round: R93 (includes R88 designs)
Method in brief: (§1)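 SNAP-549-labelled MS2 coat protein was titrated onto designed RNA switches that had been transcribed on-chip from Illumina sequencing clusters. Amounts doubled from 0.7 or 1.5 nM to 3 µM in 100 mM Tris-HCl pH 7.5, 80 mM KCl, 4 mM MgCl2, with constant ligand or without. Apparent KD is the median per design of normalised cluster binding-curve fits.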

[2] = tested on: MS2 coat protein; experiment: apparent KD of MS2 coat protein, switch OFF state (with FMN for OFF switches, without FMN for ON switches); designed switch direction (-1 OFF switch, 1 ON switch): -1; higher = weaker reporter binding; details: FMN input: 0 or 200 uM; Eterna round: R93 (includes R88 designs)
Method in brief: as §1

Sequence | apparent KD of MS2 coat protein [1] [nM] | apparent KD of MS2 coat protein [2] [nM]
CAGAGACAUGAGGAUCACCCAUGUUAGGAUAUGCGUGAAAGAAAAAAAAAGUUAAAAAGCAGAAGGAACAGAGG [JR_Exc001_Sub310] | 152 | 33.6
CAGUACUGAGGAUAUACAUGAGGAUCACCCAUGUGAAAAAGCUACGAAAGUAGCACAUGUAGAAGGCAGUACUG [Ex3: 807] | 319 | 281
CAGUACUGAGGAUAUACAUGAGGAUCACCCAUGUGAUCAAGCUACGAAAGUAGCAAAUGUAGAAGGCAGUACUG [Ex3: 809] | 40.7 | 31.7
CAUAAACAUGAGGAUCACCCAUGUGAGGAUAUGAUAUUACUAGGACGGCUGUAAUCAAUCAGAAGGCACAUCAA [JR_Exc--1_Sub1206] | 22.5 | 41.5
CCCAUGUCAGGAUAUCAGUAGUAAAAAAAAAAAAUUACUACUGAGAAGGGACAUGAGGAUCACCCAUGUCCCUU [EX4 314: Super Stable 14] | 16.9 | 14.2
CCUGUGUGAGGAUAUGGUAUAAAAAAAAAAAAAUAGCUCCUCCAGAAGGCACAUGAGGAUCACCCAUGUCGUGG [Jolly's Folly 17 - Jieux - Exclusion 4] | 26.9 | 57.1
CGCAAGUCAGGAUAUUCGACAAGUAAAUCAGUAGAUCAGAAGAAGAAGGGACAUGAGGAUCACCCAUGUAAGUA [JR_Exc004_Sub404] | 29.1 | 26.3
CGCUAGUCAGGAUAUACGAACAUGUCAAAAGACGUGAAAAAACAUGAGGAUCACCCAUGUAGAAGGGACUAGCG [Mat - Exclusion 2 - JL mod - D17] | 16.2 | 14.9
CUCAAGUAAGGAUAUGGAAGAAAAGAAGAGAAAGAAAAGAACCAGAAGGUACAUGAGGAUCACCCAUGUAAGAA [EteRNA is fun!] | 37.2 | 24.6
CUCAAGUGAGGAUAUAAAAGAAAAGAAGAGAAAGAAAAGAAUUAGAAGGCACAUGAGGAUCACCCAUGUAAGAA [EteRNA is fun!] | 39.4 | 25.5
CUCAAGUGAGGAUAUCAGUAGUAAAAAAAUAAAAUUACUACUGAGAAGGCACAUGAGGAUCACCCAUGUGCAAA [EX4 336: Super Stable 36] | 19.6 | 17
CUCAAGUGAGGAUAUUAAAGAAAAGAAGAGAAAGAAAAGAAUAAGAAGGCACAUGAGGAUCACCCAUGUAAGAA [EteRNA is fun!] | 26.4 | 33
CUCAUGUCAGGAUAUCAGUAGUAAAAAAAUAAAAUUACUACUGAGAAGGGACAUGAGGAUCACCCAUGUAAAAA [EX4 363: Super Stable 63] | 16.1 | 23.2
CUCAUGUUAGGAUAUUAAUGAAAUGAAGUGAAAGAAAAGAAUAAGAAGGAACAUGAGGAUCACCCAUGUUAGAA [EteRNA is fun!] | 69.3 | 25.2
CUGGAGUCAGGAUAUACGAACAUGUCGCCAGAUGUCAAGGUACAUGAGGAUCACCCAUGUAGAAGGGAGGAGAA [salish99-Ex2-33] | 95.2 | 84.8
CUUAUGUGAGGAUAUCAGUAGUAAAAAAAAAAAAUUACUACUGAGAAGGCACAUGAGGAUCACCCAUGUGCAUU [EX4 322: Super Stable 22] | 30.3 | 38.8
GAAAACAGAGGAUAUACGAAAUUGACACGAAAAGUGCAGGGACAUGAGGAUCACCCAUGUAGAAGGCUGAAGAA [Meechl MS2... 60% 1] | 27.7 | 48.2
GAAAAGGCAGGAUAUGCAGGAUAUAGAAGGAGGAUAUAGAGACAUGAGGAUCACCCAUGUAGAAGGGCCAAAAG [salish99-ex2-11] | 42.6 | 32.3
GAAAAGUCAGGAUAUGCGAAGGCGUCUGAUAGACGAGGCUAGCAGAAGGGACAUGAGGAUCACCCAUGUGAAAG [Mat - Exclusion 4 - Eli mod - D87] | 54.6 | 128
GAAAAGUCAGGAUAUGUACAAAAUAAAAUAAAAAUAAAAGUACAGAAGGGACAUGAGGAUCACCCAUGUAAAAA [Mat - Exclusion 4 - Mayanna - D119] | 47.3 | 49.8
GAAAAGUGAGGAUAUACAUGAGGAUCACCCAUGUGUAUAAAAAAUUACACAAAAGAAAGUAGAAGGCACUAAAG [Mat - Exclusion 3 - Mayanna mod - D113] | 17.7 | 26.5
GAAAGUGGAGGAUAUACAUGAGGAUCACCCAUGUGUAAAAAUAAAUACACAAAAGAAAGUAGAAGGCCACAAAG [Mat - Exclusion 3 - Mayanna mod - D118] | 30.6 | 125

Sequence | apparent KD of MS2 coat protein [1] [nM] | apparent KD of MS2 coat protein [2] [nM]
GAAGAACAUGAGGAUCACCCAUGUCAGGAUAUGCGCAAGGGAAUAAUAACUUGCGGAAGCAGAAGGGACAAGAA [Ex 1 May 50] | 18.9 | 35.9
GAAUGACUAGGAUAUACAUGAGGAUCACCCAUGUGUUAAAAUAAAUACACAAAAGAAAGUAGAAGGAGUCAAAG [Mat - Exclusion 3 - Mayanna mod - D126] | 21 | 50.3
GAUAGGCGAGGAUAUACAUGAGGAUCACCCAUGUAAGUAAGCCUGGCUGAAACUGAAUGUAGAAGGCGCAAAUU [Mat - Exclusion 3 - Neo mod - D70] | 17.8 | 67.7
GCUGGCGAAGGAUAUACAUGAGGAUCACCCAUGUGAGAGAAAAAAGUGAGAAAGAAAAGUAGAAGGUCGUUAGG [salish99-ex3-96] | 31.7 | 70.4
GCUGUGGAAGGAUAUACAUGAGGAUCACCCAUGUGAGAGAAAAAAGUGAGAAAGAAAAGUAGAAGGUCCGUAGG [salish99-ex3-98] | 40.3 | 66
GCUUGGCAAGGAUAUACAUGAGGAUCACCCAUGUGAGAGAAAAAAGUGAGAAAGAAAAGUAGAAGGUGCUGAGG [salish99-ex3-109] | 42.6 | 82.2
GGAAAACAUGAGGAUCACCCAUGUAAGGAUAUGCUAGGGAGGGAAAAAAUUUCGCCAGGCAGAAGGUACUAAAG [Janelle Amethyst 18 Mod 6 - Jieux - Exclusion 1] | 23.5 | 44.7
GGAAAACAUGAGGAUCACCCAUGUCAGGAUAUGUGAAAAAAAAAAAAAAGAAAAGAAAACAGAAGGGACAAAAG [amethyst 6] | 80.8 | 23.2
GGUUGGCGAGGAUAUACAUGAGGAUCACCCAUGUGAGAGAAAAAAGUGAGUAAGAAAAGUAGAAGGCGCUGACG [salish99-ex3-33] | 49.9 | 4710
GGUUGGCGAGGAUAUACAUGAGGAUCACCCAUGUGAGAGAAAAAAGUGAUAAAGAAAAGUAGAAGGCGCUGACG [salish99-ex3-32] | 120 | 2470
GGUUGUCGAGGAUAUACAUGAGGAUCACCCAUGUGAGAGAAAAAAGUGAGAAAGAAAAGUAGAAGGUGGUGACG [salish99-ex3-71] | 57.6 | 92.9
GUCCUACAUGAGGAUCACCCAUGUCAGGAUAUGCACCGGUUGCUUUAGACCGGUAAAGGCAGAAGGGACGGGUG [Orzadima] | 23.2 | 19.8
UAAAAACAUGAGGAUCACCCAUGUCAGGAUAUGUGCUUAAUAAAAAAAUAAAUAACAAGCAGAAGGGACAAUAA [JR_Exc001_Sub201] | 35 | 34.4
UAAAAUAAAGGAUAUAAAACAGAGGAUAUACAUAAAUAAAAACAUGAGGAUCACCCAUGUAGAAGGCUGAAAAU [Meechl Ex2 R2 m1] | 29 | 28.4
UAAAGACAUGAGGAUCACCCAUGUGAGGAUAUCGGUGACUAUAAAAAAAAAUAGUCACCGAGAAGGCACAGAAA [JR_Exc001_Sub301] | 43.2 | 117
UACAUACAUGAGGAUCACCCAUGUCAGGAUAUGUGCUCAGUGAAAAACAAAGAAACAAGCAGAAGGGACACUAA [JR_Exc001_Sub203] | 41.8 | 37.5
UAGAACCUAGGAUAUACUUGGGAAACUAAUGCAAAGAUAUAACAUGAGGAUCACCCAUGUAGAAGGAGGAGUAA [JR_Exc002_Sub019] | 84.5 | 132
UAUAGACAUGAGGAUCACCCAUGUGAGGAUAUCAGUGACUACAGGACAUCACGUACAAUGAGAAGGCACAGAAA [JR_Exc001_Sub015] | 34.7 | 45.2
UCGAUGCGAGGAUAUACUAAGGCAACUACUGCAGCUCAAAAACAUGAGGAUCACCCAUGUAGAAGGCGCAUAUA [JR_Exc002_Sub304] | 19.6 | 18.1
UUAGAACAUGAGGAUCACCCAUGUGAGGAUAUGCAAUACUAGCGACAAGAUCGUUAUAGCAGAAGGCACGUAGU [JR_EXc001_Sub807] | 38.6 | 64.5
UUUAUGUGAGGAUAUACGAAUAGUAAGUAAGUAUUACAGACGUAGAAGGCACAUGAGGAUCACCCAUGUGAAUA [JR_Exc004_Sub307] | 32.7 | 58.8

— the supplement of paper PMC9170038
